Here are results for one protein from paper PMC3989768, “Activation of the γ-Tubulin Complex by the Mto1/2 Complex” (Current Biology, 2014).

The data set concerns the molecule itself. As to the kind of experiment: glycerol density-gradient centrifugation; material partially purified by Mto2-SZZ (IgG beads, TEV cleavage) from mto1[9A1-bonsai]-GFP or mto1Δ lysates, before and after 10-fold concentration; isokinetic glycerol gradient, 2.5 hr or 45 min; quantitative western blotting. On the technique in general: Immunoblotting shows a protein as a band on a membrane.

B1: Mto2-S (the TEV protease cleavage product of Mto2-SZZ) (natural protein, Schizosaccharomyces pombe, UniProt Q9USP7 1-397, looked up)
chain: MSEHNYQSDREVAEDPFLNYEASANQLSSNSRESTPRGSPWRAGMRSASLMTEPLEDSMYSDNNYLDNGVSFTKDENPLYSPSWPSLADANVNSMKSNNAIQEHKAAKFVSEKSLEKVSTADNNLVLQELENLRERLNQVELQLSERPSSYLGYHNNLSPYRSPNSYPSLLPSTHSPHSPAPLSTMQTALMRLRTYHPSPIILKPVEQAVNHAITLVNTSPSSVVDALCRSLAELCLGLVQEAIDASILSQQESSNSLDLVRHTPPLNYTSSVDSSPQRMASDSYGRPSLHLNDPFPSVDLQSNELSHHNVRTTLFSDDSRFHSKIHTHSTPPSQMYSAASHFRYRSDPSTRHVSNSTNKSSLHPSPTSLRVAHPIIPQRASPASQSFPSLQDTPSP
notes: Mto2, Schizosaccharomyces pombe; source: S. pombe, partially purified (immunoglobulin G beads, TEV protease cleavage), enriched 3,400-fold
In the case of B1, the binding result is listed as “binds”.
